Assay results published in patent US20240091361A1, “T CELL RECEPTORS TARGETING RAS MUTATIONS AND USES THEREOF” (MEMORIAL SLOAN-KETTERING CANCER CENTER, priority 2021, published 2024).
One block for each molecule: values may come before it.

How the values were obtained:
[1] = molecular target: T1, peptide-pulsed HLA-A*11:01+ COS-7 target cells (Homo sapiens, UniProt P04439, A114D/D185E/E176A/F33Y/L180Q/S129P/T187R); assay: Cross-reactivity: IFN-γ ELISA after coculture of RAS TCR-T cells with peptide-pulsed HLA-A*11:01+ COS-7 cells; assay type: cell-based; conditions: peptides of Tables 7-11 at 1 μM, E:T 1:1, 24 h; background threshold 50 pg/mL
T1 construct: Target COS-7 cells were electroporated with mRNA encoding full-length human HLA*11:01; expressed in transfected cells; host or cells: COS-7 cells electroporated with mRNA
Protocol: Next, studies were conducted to determine the cross-reactivity potential of RAS-specific TCRs. Individual TCR peptide motifs were scanned against the human proteome to identify potential cross-reactive sequences. Target COS-7 cells were electroporated with mRNA encoding full-length human HLA*11:01 and incubated at 37 degrees overnight to allow HLA-A*11:01 protein expression. […]. The cells were then pulsed with an individual peptide corresponding to its RAS-specific TCR (see Tables 7-11) at a concentration of 1 μM; finally, wild-type (WT) and mutated RAS peptides were included as functional controls. RAS TCR-T cells, expressing individual RAS TCRs 1-5, were added at an E:T ratio of 1:1 and incubated at 37 degrees for 24 h. Supernatants were harvested from coculture wells to perform an ELISA assay to determine levels of IFN-γ production.

[2] = molecular target: T2, KRAS G12D (10-mer; the same sequence in NRAS G12D and HRAS G12D) peptide on HLA-A*11:01 (human); assay: multimer staining
T2 peptide: VVVGADGVGK

[3] = molecular target: T3, GEM (also listed as SEQ ID NOs 82, 106, 130, 141) peptide on HLA-A*11:01 (human); assay: cytokine release
T3 peptide: AVFGAGGVGK

[4] = molecular target: T4, KRAS wild type (10-mer) peptide on HLA-A*11:01 (human); assay: cytokine release
T4 peptide: VVVGAGGVGK

reactivity (IFN-γ) to alternative human peptide sequences possessing the recognition motif [1]: did not exhibit reactivity
B1: TCR 4: T cell receptor targeting RAS G12D peptide; α chain SEQ ID NO: 41, β chain SEQ ID NO: 42 (protein, listed as Homo sapiens)
alpha: MMKSLRVLLVILWLQLSWVWSQQKEVEQDPGPLSVPEGAIVSLNCTYSNSAFQYFMWYRQYSRKGPELLMYTYSSGNKEDGRFTAQVDKSSKYISLFIRDSQPSDSATYLCAMGALNSGAGSYQLTFGKGTKLSVIPNIQNPDPAVYQLRDSKSSDKSVCLFTDFDSQTNVSQSKDSDVYITDKTVLDMRSMDFKSNSAVAWSNKSDFACANAFNNSIIPEDTFFPSPESSCDVKLVEKSFETDTNLNFQNLSVIGFRILLLKVAGFNLLMTLRLWSS
beta: MGSRLLCWVLLCLLGAGPVKAGVTQTPRYLIKTRGQQVTLSCSPISGHRSVSWYQQTPGQGLQFLFEYFSETQRNKGNFPGRFSGRQFSNSRSEMNVSTLELGDSALYLCASSLSSGTGTEAFFGQGTRLTVVEDLNKVFPPEVAVFEPSEAEISHTQKATLVCLATGFFPDHVELSWWVNGKEVHSGVSTDPQPLKEQPALNDSRYCLSSRLRVSATFWQNPRNHFRCQVQFYGLSENDEWTQDRAKPVTQIVSAEAWGRADCGFTSVSYQQGVLSATILYEILLGKATLYAVLVSALVLMAMVKRKDF
modifications: Description of sequence: Full alpha-chain; Description of sequence: Full beta-chain

binding result [2]: recognises
binding result [3]: no recognition
binding result [4]: no recognition
B2: TCR 1 (TCR, V domains shown)
Valpha: GDSVTQMEGPVTLSEEAFLTINCTYTATGYPSLFWYVQYPGEGLQLLLKATKADDKGSNKGFEATYRKETTSFHLEKGSVQVSDSAVYFCALSDRVGGARLMFGDGTQLVVKP
Vbeta: EADIYQTPRYLVIGTGKKITLECSQTMGHDKMYWYQQDPGMELHLIHYSYGVNSTEKGDLSSESTVSRIRTEHFPLTLESARPSHTSQYLCASSEGLYNEQFFGPGTRLTVL

reactivity (IFN-γ) to alternative human peptide sequences possessing the recognition motif [1]: did not exhibit reactivity
B4: TCR 5: T cell receptor targeting RAS G12D peptide; α chain SEQ ID NO: 50, β chain SEQ ID NO: 51 (protein, listed as Homo sapiens)
alpha: MKTFAGFSFLFLWLQLDCMSRGEDVEQSLFLSVREGDSSVINCTYTDSSSTYLYWYKQEPGAGLQLLTYIFSNMDMKQDQRLTVLLNKKDKHLSLRIADTQTGDSAIYFCAERDAGNNRKLIWGLGTSLAVNPNIQNPDPAVYQLRDSKSSDKSVCLFTDFDSQTNVSQSKDSDVYITDKTVLDMRSMDFKSNSAVAWSNKSDFACANAFNNSIIPEDTFFPSPESSCDVKLVEKSFETDTNLNFQNLSVIGFRILLLKVAGFNLLMTLRLWSS
beta: MGTRLLCWVVLGFLGTDHTGAGVSQSPRYKVAKRGQDVALRCDPISGHVSLFWYQQALGQGPEFLTYFQNEAQLDKSGLPSDRFFAERPEGSVSTLKIQRTQQEDSAVYLCASSLEGGDTQYFGPGTRLTVLEDLKNVFPPEVAVFEPSEAEISHTQKATLVCLATGFYPDHVELSWWVNGKEVHSGVSTDPQPLKEQPALNDSRYCLSSRLRVSATFWQNPRNHFRCQVQFYGLSENDEWTQDRAKPVTQIVSAEAWGRADCGFTSESYQQGVLSATILYEILLGKATLYAVLVSALVLMAMVKRKDSRG
modifications: Description of sequence: Full alpha-chain; Description of sequence: Full beta-chain

Continued, molecule first:

B3: TCR 2: T cell receptor targeting RAS G12D peptide; α chain SEQ ID NO: 22, β chain SEQ ID NO: 23 (protein, listed as Homo sapiens)
alpha: MTRVSLLWAVVVSTCLESGMAQTVTQSQPEMSVQEAETVTLSCTYDTSENNYYLFWYKQPPSRQMILVIRQEAYKQQNATENRFSVNFQKAAKSFSLKISDSQLGDTAMYFCAFMYPSQGGSEKLVFGKGMKLTVNPNIQNPDPAVYQLRDSKSSDKSVCLFTDFDSQTNVSQSKDSDVYITDKTVLDMRSMDFKSNSAVAWSNKSDFACANAFNNSIIPEDTFFPSPESSCDVKLVEKSFETDTNLNFQNLSVIGFRILLLKVAGFNLLMTLRLWSS
beta: MGPGLLCWVLLCLLGAGSVETGVTQSPTHLIKTRGQQVTLRCSSQSGHNTVSWYQQALGQGPQFIFQYYREEENGRGNFPPRFSGLQFPNYSSELNVNALELDDSALYLCASSSPGFRSYGYTFGSGTRLTVVEDLNKVFPPEVAVFEPSEAEISHTQKATLVCLATGFFPDHVELSWWVNGKEVHSGVSTDPQPLKEQPALNDSRYCLSSRLRVSATFWQNPRNHFRCQVQFYGLSENDEWTQDRAKPVTQIVSAEAWGRADCGFTSVSYQQGVLSATILYEILLGKATLYAVLVSALVLMAMVKRKDF
modifications: Description of sequence: Full alpha-chain; Description of sequence: Full beta-chain
reactivity (IFN-γ) to alternative human peptide sequences possessing the recognition motif [1]: did not exhibit reactivity

B5: TCR 1: T cell receptor targeting RAS G12D peptide; α chain SEQ ID NO: 12, β chain SEQ ID NO: 13 (protein, listed as Homo sapiens)
alpha: MNYSPGLVSLILLLLGRTRGDSVTQMEGPVTLSEEAFLTINCTYTATGYPSLFWYVQYPGEGLQLLLKATKADDKGSNKGFEATYRKETTSFHLEKGSVQVSDSAVYFCALSDRVGGARLMFGDGTQLVVKPNIQNPDPAVYQLRDSKSSDKSVCLFTDFDSQTNVSQSKDSDVYITDKTVLDMRSMDFKSNSAVAWSNKSDFACANAFNNSIIPEDTFFPSPESSCDVKLVEKSFETDTNLNFQNLSVIGFRILLLKVAGFNLLMTLRLWSS
beta: MTIRLLCYMGFYFLGAGLMEADIYQTPRYLVIGTGKKITLECSQTMGHDKMYWYQQDPGMELHLIHYSYGVNSTEKGDLSSESTVSRIRTEHFPLTLESARPSHTSQYLCASSEGLYNEQFFGPGTRLTVLEDLKNVFPPEVAVFEPSEAEISHTQKATLVCLATGFYPDHVELSWWVNGKEVHSGVSTDPQPLKEQPALNDSRYCLSSRLRVSATFWQNPRNHFRCQVQFYGLSENDEWTQDRAKPVTQIVSAEAWGRADCGFTSESYQQGVLSATILYEILLGKATLYAVLVSALVLMAMVKRKDSRG
modifications: Description of sequence: Full alpha-chain; Description of sequence: Full beta-chain
reactivity (IFN-γ) to alternative human peptide sequences possessing the recognition motif [1]: did not exhibit reactivity

B6: TCR 3: T cell receptor targeting RAS G12D peptide; α chain SEQ ID NO: 31, β chain SEQ ID NO: 32 (protein, listed as Homo sapiens)
alpha: MACPGFLWALVISTCLEFSMAQTVTQSQPEMSVQEAETVTLSCTYDTSESDYYLFWYKQPPSRQMILVIRQEAYKQQNATENRFSVNFQKAAKSFSLKISDSQLGDAAMYFCAYRSDGGATNKLIFGTGTLLAVQPNIQNPDPAVYQLRDSKSSDKSVCLFTDFDSQTNVSQSKDSDVYITDKTVLDMRSMDFKSNSAVAWSNKSDFACANAFNNSIIPEDTFFPSPESSCDVKLVEKSFETDTNLNFQNLSVIGFRILLLKVAGFNLLMTLRLWSS
beta: MGPQLLGYVVLCLLGAGPLEAQVTQNPRYLITVTGKKLTVTCSQNMNHEYMSWYRQDPGLGLRQIYYSMNVEVTDKGDVPEGYKVSRKEKRNFPLILESPSPNQTSLYFCASSLGAGGYNSPLHFGNGTRLTVTEDLNKVFPPEVAVFEPSEAEISHTQKATLVCLATGFFPDHVELSWWVNGKEVHSGVSTDPQPLKEQPALNDSRYCLSSRLRVSATFWQNPRNHFRCQVQFYGLSENDEWTQDRAKPVTQIVSAEAWGRADCGFTSVSYQQGVLSATILYEILLGKATLYAVLVSALVLMAMVKRKDF
modifications: Description of sequence: Full alpha-chain; Description of sequence: Full beta-chain
reactivity (IFN-γ) to alternative human peptide sequences possessing the recognition motif [1]: low level reactivity to a single alternative peptide
